± gives the uncertainty stated by the source.
Assay: amyloid nucleation score (Sup35N fusion, yeast selection) (log enrichment); library NNK2; higher = more nucleation; inactive = no reads after selection
How it was run: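 The nucleation score is the log enrichment of output over input reads, calculated with DiMSum and centred on the mode score of non-aggregating sequences. Sequences with under 100 input reads were excluded. Reads came from Illumina sequencing of plasmid inserts from psi-negative yeast expressing Sup35N fused to peptides of 20 random codons, induced 24 hours with 100 μM copper sulfate and grown 7 days at 30°C without adenine and uracil.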

Row | Substance | amyloid nucleation score
1 | DSSSVGGVLPVCVNSKSMED | -0.236 ± 0.41
2 | FFSNRNCLE | -1.34 ± 0.64
3 | LPMLRHTYNCFSVACIGIFC | -0.204 ± 0.3
4 | MDRWGLFMGYCIADHMIMFD | -0.416 ± 0.48
5 | TGGGATLRRILRHLSVGSDR | -0.005 ± 0.79
6 | LLVAALSHGPGISRSVNSHP | 5.91 ± 0.061
7 | CSFSYGMYSK | 0.401 ± 0.23
8 | NPTHLLPHTEIGVLDTCAF | 0.265 ± 1.1
9 | GRVNLDRCSSWVGWFVGCLL | -1.09 ± 0.78
10 | CSSEDITYAWQWARWLRS | 0.494 ± 0.41
11 | KDTRVVYVPSFYLWNLDAVK | -0.551 ± 0.61
12 | SVIIQLSYTRGYWLLQA | -0.845 ± 0.45
13 | FYFGYLTFISENHVGIQEQG | inactive
14 | VTICIGVAFYVFCTSTSNCM | 5.242 ± 0.039
15 | GVYWILFIAWLRKVRWYSDV | -0.144 ± 0.32
16 | LFVLVREVNVLTFLCPSEDQ | 8.52 ± 0.066
17 | VSGLPN | inactive
18 | QSVNCYNVNSDVCNKVYNDL | 0.716 ± 0.42
19 | MIIMQANDP | -0.302 ± 0.76
20 | GFQFLIGLSHLNGYLITPRY | 3.42 ± 0.059
21 | ESKVAIA | -0.247 ± 0.24
22 | YVIQMYLSEATGCYVFTYFF | 0.368 ± 0.33
23 | LQVAARHHL | inactive
24 | ITLTLTVCTGLCWKYGRRMW | 4.49 ± 0.071
25 | RNALLCADLTPLAPLNLFCD | -0.636 ± 0.76

Row | Substance | amyloid nucleation score
26 | SQKNCCKVEGRLMASRVKPR | 0.155 ± 1.1
27 | VSDRLTMFKSVRSVWMCWGQ | -0.146 ± 0.61
28 | QGVSVLFGVSATLY | 1.19 ± 0.26
29 | SDLWSIPFFGFGDPPMGFFR | inactive
30 | LDISSDPFFSS | -1.25 ± 1.1
31 | VMIIFLDNKRYGKAPNCGRM | 7.263 ± 0.07
32 | FKLFMLSSFSLMM | 0.182 ± 1.1
33 | AYGKLSE | -0.68 ± 0.5
34 | RNIQYVAMEVCDFKFPVDGV | 0.223 ± 0.26
35 | LFDGRNYF | -0.669 ± 0.46
36 | SRMLYVQIWREYVNSWKTSS | -0.356 ± 0.38
37 | VVPCWSVNKDSRSDRSD | -0.1 ± 1
38 | RMLCLTSG | -0.59 ± 0.63
39 | HNRYYGVIYVSLKICKLAFR | 6.476 ± 0.027
40 | GWASHGDNDSAMTGGSVWPG | 0.587 ± 0.62
41 | SSYRSEGSAYGMPYYPVSAS | 1.06 ± 0.38
42 | SIYFKVIATTSVYRLMPTVW | -0.291 ± 0.74
43 | LRNMPRVQQVCPYFINVRGK | 2.25 ± 0.082
44 | SQLLDSLQNGRGCYSM | inactive
45 | EYSRVLTGVFLIQSYCKFGN | -0.219 ± 0.2
46 | RSRAQQHSQHNTVDITPTRS | 0.194 ± 0.32
47 | LMTSPSFIYVWSYTGFRMFG | 4.983 ± 0.042
48 | HYAFVLGYKFYYGVANYCDG | 0.886 ± 0.66
49 | CFLWHAT | 0.451 ± 0.41
50 | RLNIGLLSVGYR | 1.76 ± 0.17

Row | Substance | amyloid nucleation score
51 | SLSRGLC | 0.404 ± 0.45
52 | VVYLEIVTRGATGYLVCLPC | -0.437 ± 0.6
53 | TGCVDVAEMVNP | 0.138 ± 0.48
54 | FHEDRERGTIFDEFMIFRN | -0.945 ± 0.76
55 | YLICD | -0.578 ± 0.76
56 | LTVVV | 0.709 ± 0.66
57 | RNSSVGT | inactive
58 | YNMMLSVWDSYVLLVECVME | -0.801 ± 0.31
59 | DEECTEPTWIGDEFDPLDIE | inactive
60 | RHTYVHYAHKVYLESFLGCG | 6.327 ± 0.04
61 | DLSDIDRCGRLVNRESILLR | 1.45 ± 0.5
62 | FYWRFTFRLVCRFCYTRHLK | -0.522 ± 0.35
63 | NKLLHHFILGAEESLLEIMY | inactive
64 | LATKTLSMSLESICRNTVAF | inactive
65 | ETMIHTPQELYVMYSPLTQQ | 6.263 ± 0.051
66 | RNSYALNINEM | -0.4 ± 0.38
67 | MNVYYHVGWNGCYSGVWRAE | 4.818 ± 0.043
68 | RTWSIFIASVKYVKV | -0.24 ± 0.74
69 | LYRSVGFGIVEFDH | inactive
70 | LLNDFRQLNTRYDSRWGQWQ | 3.08 ± 0.058
71 | TVFPMREIEVLFDSIWYGFN | 1.71 ± 0.096
72 | TFNISLAWCEFFSHIFLLN | inactive
73 | CNLWSDLGWYYQAMWKIRRD | inactive
74 | RTMSNGSDVCFNNGMFHYLN | -1.04 ± 0.76
75 | LYLCGWVGRSMGFDARPCHF | 3.38 ± 0.098

Row | Substance | amyloid nucleation score
76 | SRANMQSRCRLNNQSVYGKL | -0.175 ± 0.45
77 | IGTEWVFVM | 0.17 ± 0.64
78 | CILDI | -0.089 ± 1.1
79 | HMNFRWLYMSIYVISLLEAL | inactive
80 | IYNVSQLRTGTDMFNL | 0.721 ± 0.51
81 | SINYKALAS | inactive
82 | SCQFWSTFCTSC | 0.378 ± 0.74
83 | AAIMMN | -0.231 ± 0.62
84 | GTRTISLKGPSGYYA | -0.689 ± 0.41
85 | TSFLPELRGLYGRAIVARNY | -1.39 ± 1.1
86 | LGFHWIRNGGGLVTVNLVCV | 0.747 ± 0.27
87 | FMMIRV | inactive
88 | SHRCELKWTGLVMNYKVVHC | 1.71 ± 0.25
89 | NACPVCSRW | 0.589 ± 0.38
90 | TAKDTPCAVRIIFEFLDGLV | 7.279 ± 0.056
91 | RIVGDLICDVSSSQISTSHT | -0.291 ± 0.48
92 | YLSGLIIS | -0.593 ± 1.1
93 | VSLIFQIRLRHRLTGAQMKR | 0.762 ± 0.37
94 | KCVGYW | 0.811 ± 0.57
95 | HHIRSFVETGGDTWWGRCSR | 1.05 ± 0.21
96 | QINSHNWYDG | 0.369 ± 0.8
97 | FSMYSSSVWLDW | inactive
98 | LRESFKRWMLVVAATLYAFK | 0.376 ± 0.48
99 | SPYLMSTDKIRLSP | 1.16 ± 0.44
100 | NGNIKFFHRMRRTRHVACLY | 0.223 ± 0.39

Row | Substance | amyloid nucleation score
101 | TIGTVMNSLSHFLRPAR | 1.15 ± 0.21
102 | CCYLFRSLRLVGSQIFSQSL | 0.35 ± 0.8
103 | IYCLATVMDMICVYGWICAW | 0.049 ± 0.34
104 | MIKYYVSHNPRWHSRWCNSQ | 0.762 ± 0.43
105 | AMSPGTVKRFGLLVALFQY | 0.867 ± 0.74
106 | ARKISV | inactive
107 | YFVVL | -1.78 ± 0.62
108 | GLTLFVRSLALRNYVCDWSP | 0.149 ± 0.36
109 | SDLFVNICCRPNRMGV | -0.521 ± 0.48
110 | AWFCREKGNGFFFM | inactive
111 | PYMPGRMWSRILSVCSVCCV | 1.48 ± 0.58
112 | YNVDDCSHRDRFIDNRDSEC | inactive
113 | SVRFAC | -0.114 ± 1.1
114 | LFMLYCFHLQDMKRVQICVH | 0.188 ± 0.19
115 | LVLWKLQVCSPLTVLRTPYR | 0.889 ± 0.28
116 | KLGRCRRKFMLYGCNLVQSR | -0.133 ± 0.33
117 | MTALSTVDWRYSAHFSS | inactive
118 | RSKMNRLMVLRSRVRWWYNE | 0.485 ± 0.32
119 | IWTDVRLGGRDIVLDSRVYF | 2.14 ± 0.098
120 | PVKTNFCENINYFIVPGFAL | inactive
121 | FLSINISISRVLLSDCTS | 3.05 ± 0.12
122 | EVADSRKVSSATWSISSNQR | 1.41 ± 0.4
123 | FFSVSNDHPSFFPANVGEVH | 1.74 ± 0.25
124 | IDFSRQTYLNCKKSRSSLLS | -0.437 ± 0.61
125 | SLSDYFGEWISA | -0.422 ± 1.1

Row | Substance | amyloid nucleation score
126 | KIISNSFCSPCINSILPSKM | 6.826 ± 0.053
127 | WVHGIESSRWRFGL | -0.474 ± 1.1
128 | KNSGSMIRWIFIRGSTTIEK | inactive
129 | GVAMNNCGIMDSREHGFGIR | 0.436 ± 0.36
130 | SNWNTTPVSPS | 0.514 ± 0.44
131 | TYLMSFICNNLRVDIANINR | 0.141 ± 0.3
132 | WWNITTEAPIFLIFCFTRQG | 4.8 ± 0.068
133 | FFSRTKYDSSRLKPWGMDIS | 0.523 ± 0.64
134 | RWDCGGGTNCSGENIWQGET | -0.083 ± 0.34
135 | WFRKGHHVVT | 1.08 ± 0.41
136 | TDLYTCDVLRVLVCAH | -0.011 ± 0.45
137 | IINYANLSTVVNFYIRIGYC | 6.812 ± 0.028
138 | EDCVMISTCNFLFTINVLEA | 6.38 ± 0.065
139 | RCFCG | 0.226 ± 0.35
140 | MKKWWPVICFGWSQVSFRVE | 3.21 ± 0.16
141 | FSVLAMAWSS | -0.226 ± 1.1
142 | AEHYECPLCERIETAGCKLV | 0.509 ± 0.24
143 | VAEYGLENDWFLHWQICMNS | -0.618 ± 0.48
144 | WVTIALYCNKLIVTVRGGIG | -0.029 ± 1.1
145 | WIMNKANNCKCFIEDTNWS | 7.352 ± 0.044
146 | RLDWREVHWLVRKTLL | 0.648 ± 0.16
147 | GFICPFVQLCVFRSRHRFEV | 0.676 ± 0.8
148 | SDLYNSSFEVLYSSYCPDVW | inactive
149 | SLFDFAVFNMNYESNACISR | 0.451 ± 0.27
150 | SYAYVSKMYVKYCQLKFI | -0.921 ± 0.78

Row | Substance | amyloid nucleation score
151 | LFDSLPDYITTYYNNDAQQG | -1.85 ± 1
152 | NSRLRRVYAGSARGAWTYRR | 1.14 ± 0.38
153 | ESYKCVFRLIDWNIDYILTV | 0.855 ± 0.57
154 | QGLFLLSCPSSN | 2.54 ± 0.11
155 | IVNLARLKCSMCRECCGRVL | 2.64 ± 0.12
156 | LLRVMLHISLVMC | -1.34 ± 0.53
157 | LLMMRGSRVSNS | -0.763 ± 0.39
158 | TVKNRA | 0.694 ± 0.51
159 | FCGIGSPHYGRSAALQLRLM | 0.708 ± 0.37
160 | SFLYLPDGTDMI | 0.171 ± 0.29
161 | SPYAFACAGCSGVKG | 0.234 ± 0.26
162 | MLRFFCADWCSLGVCFTLGV | -0.137 ± 1.1
163 | NFNGGCKFKGDYYRKA | 1.14 ± 0.26
164 | GIISRMGAVSLNLMLQKRAS | 0.8 ± 0.46
165 | SYHRQRSNTFTAKLQCSRSW | 0.307 ± 0.56
166 | NENTLNMMKVWVTGGLSTRK | 2.89 ± 0.17
167 | AILSEGETGFVSDYRQVSEP | -0.004 ± 0.34
168 | CRRTFDSLIS | -0.74 ± 0.78
169 | FNRFLKYMPSSWLWQGCSVQ | -0.451 ± 0.36
170 | YSGDRDTVLYHCTRVGAESV | 0.109 ± 0.63
